Measurements as given in paper PMC5496915, “Interactions between LHX3- and ISL1-family LIM-homeodomain transcription factors are conserved in Caenorhabditis elegans” (Scientific Reports, 2017).

Molecular target: T1, CEH-14_(LIM1+2) as it stands in the tethered CEH-14–LIM-7 complex (C. elegans, UniProt P20271 42-168)
T1 construct: CEH-14, C. elegans, tandem LIM domains LIM1+2, residues 42-168; Joined on one chain with m29 through an 11-residue Gly/Ser linker; the whole chain is m27; also called LIM domains from CEH-14
T1 sequence (looked up): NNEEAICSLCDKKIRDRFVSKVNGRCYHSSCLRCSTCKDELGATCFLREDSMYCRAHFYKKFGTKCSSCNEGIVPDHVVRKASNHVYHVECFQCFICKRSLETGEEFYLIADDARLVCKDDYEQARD
Experiment: SAXS; tethered complex on one chain, 5.2 mg/mL, 50 mM Tris, 100 mM NaCl, 5 mM TCEP pH 8.0 (the legend says 20 mM Tris pH 8.0, 150 mM NaCl, 1 mM TCEP), 10 °C; low-resolution shape restoration
Details: both partners purified

binding result: binds
B1: LIM-7LID as it stands in the tethered CEH-14–LIM-7 complex (domain or fragment, C. elegans)
chain: GIGPLMVQPATPHIDNTLGGPIDIQHFAQW
notes: Joined on one chain with m28 through an 11-residue Gly/Ser linker; the whole chain is m27; also called LID from LIM-7
